Reference: patent US20070032637A1

Target: EGFR on A431 cells (human squamous cell carcinoma cells) (human) (UniProt P00533)
Experiment: inhibition of the binding of Eu-EGF (10 nM) to A431 cells, time-resolved fluorescence; blocked ligand: Eu-EGF

IC50 (read off the curve): 0.6 µg/mL
Substance: anti-EGFR monoclonal antibody Ab-3 (Oncogene)
